Results: article PMC3828196 (PLoS ONE, 2013)
Values joined by “and” are separate entries in the source; they are usually repeats but may differ in a detail not shown here. Equal entries are not always repeated. “Also recorded” adds a separate entry of the source. Where two headings read alike, the source gives them in different places.

Legend:
EcDsbA = molecular target: T1, EcDsbA (Escherichia coli, UniProt P0AEG4); assay: biochemical; type: binding, E. coli; conditions: ITC; range stated for KpDsbA and EcDsbA with […] and […] together; read-out: Kd (range over both peptides and both DsbAs)
T1 construct: lacking the periplasmic leader signal were purified as described for KpDsbA; His6-TEV leader (inferred: same procedure as KpDsbA) (N, cleaved yes); made in house; host or cells: E. coli BL21(DE3)pLys (inferred from 'as described for KpDsbA')
Procedure: (§1) Amidation and acetylation ensure that there are no charges on the peptide termini, as these are not present in the native DsbB loop sequence. Binding affinity was measured using a MicroCal™ Auto-iTC200 from (GE Healthcare, USA) at 25 °C. The sample cell was loaded with 200 μL of 100 μM KpDsbA or EcDsbA in 25 mM HEPES, 50 mM NaCl, pH 7.4, and DMSO 0.8 %. The peptide (3 mM) diluted in the same buffer was titrated with an initial injection of 0.5 μL into DsbA, followed by 19 consecutive injections (2.0 μL) offset by 180 s, while the solution was constantly stirred (1000 rpm). Data were fitted to a single-site binding model using MicroCal™ Origin 7.0 software (Origin 7 SR4 v7.0552).

KpDsbA = assay: ITC binding of DsbB-derived peptides to KpDsbA; design: species or system K. pneumoniae
Procedure: as §1, with “v7.0552). Experiments were conducted in triplicate and affinity and thermodynamic parameters are reported as means and standard deviations (Table 4).” for “v7.0552).”

insulin [1] = assay: Insulin disulfide reductase activity; type: biochemical; conditions: 10 μM enzyme, 0.33 mM DTT, 2 mM EDTA, 100 mM phosphate pH 7.0, 0.131 mM insulin; OD650nm turbidity; three repeats
Procedure: Under mild reducing conditions, DsbA proteins can reduce the intermolecular disulfide bonds formed between insulin chains A and B [3]. The rate of disulfide bond reduction can be spectroscopically followed at OD650nm by an increase in turbidity resulting from production of the insoluble insulin chain B [20]. Samples were prepared in 1 cm cuvettes containing 10 μM of protein (KpDsbA, EcDsbA or EcDsbC), 0.33 mM DTT and 2 mM EDTA in 100 mM NaH2PO4 / Na2HPO4 titrated to pH 7.0. Catalysis was initiated by the addition of 0.131 mM insulin (I0516, Sigma-Aldrich, Australia) to the sample mixture. The assay was repeated three times and data were plotted showing standard deviations.

[2] = In vitro peptide dithiol oxidation (europium fluorescence); type: biochemical; conditions: pH 5.5; for dithiol oxidation signal without EcDsbB: samples lacking EcDsbB, DsbA plus peptide, time-resolved fluorescence
Procedure: A peptide ([…]) with a 1,4,7,10-tetraazacyclododecane-1,4,7,10-tetraacetic acid (DOTA) group amide-coupled to the N-terminus, and a methylcoumarin amide-coupled to the ε-amino group of the C-terminal lysine, was purchased from AnaSpec (Fremont, CA). Lyophilized peptide was re-suspended in 100 mM imidazole, pH 6, at a concentration of 2 mM. Europium trifluoromethanesulfonate (Sigma Aldrich, Australia) solution (100 mM) was added to the peptide at a molar ratio of 2:1 and incubated for 5 min at room temperature, to allow europium chelation. The peptide solution was then immediately aliquoted, flash frozen in liquid nitrogen and stored at -80°C. An increase in fluorescence occurs upon oxidation of the peptide cysteines to form a disulfide. Thus, fluorescence can be used to monitor the capacity of DsbA enzymes to catalyse dithiol oxidation.
Assays were conducted using a Synergy H1 multimode plate reader (BioTek, USA) with the excitation wavelength set to 340 nm and emission to 615 nm. A 150 μs delay before reading and 100 μs reading time were used for time-resolved fluorescence. The assay was performed in a white 384-well plate (Perkin Elmer OptiPlate-384, Part #: 6007290). The buffer consisted of 50 mM MES, 50 mM NaCl and 2 mM EDTA at pH 5.5. The reaction consisted of a 50 μL solution in each well, containing 160 nM EcDsbA, KpDsbA or SeDsbA, 1.6 μM EcDsbB (crude membrane extracts, containing ubiquinone) and 8 μM peptide substrate added last to initiate the reaction. Samples containing buffer and DsbA or buffer and peptide were used as controls. Data were measured for three replicates and are presented as mean values, with the standard error of the mean indicated by error bars.

[3] = cited from earlier work; for pKa “Cys30”: Table 1 and comparison
Source text: The past 5 years has seen the characterization of DsbA enzymes from many other bacteria including DsbAs with varying degrees of sequence identity to EcDsbA such as Neisseria meningitidis DsbA1 (NmDsbA1, 23% identity), Pseudomonas aerugin ... || EcDsbA and SeDsbA share 86 % sequence identity and both have been characterized previously. […] Both are similarly oxidizing enzymes: the redox potentials of EcDsbA and SeDsbA are -122 and -126 mV, respectively, whereas the range for all DsbAs is -80 to -163 mV (Table 1 ). In b ... || (+ 1 further places)

insulin [4] = conditions: cited from earlier work
[5] = system: E. coli dsbA- null (JCB817); assay: Complementation swarming assay, dsbA- null strain JCB817; conditions: pBAD33, arabinose-induced; soft M63 minimal agar, 37 °C, 3-7 h; biological triplicates
Procedure: The ability of KpDsbA to rescue non-motile E. coli dsbA ^- null (JCB817) and dsbA ^-/dsbB ^- double-null (JCB818) strains was assessed in a cell-swarming assay as described previously [16]. The mature KpDsbA coding sequence was cloned into pBAD33 under an arabinose inducible promotor with the EcDsbA periplasmic signal sequence. A wild-type EcDsbA cloned into pBAD33 vector was used as a positive control. Non-motile E. coli dsbA ^- deficient (JCB817) or dsbA ^- / dsbB ^- double-mutant (JCB818) [3] cells (2x10^6) transformed with a KpDsbA or EcDsbA pBAD33 inducible vector were spotted onto the center of a soft M63 minimal agar plate containing 40 mg/mL of each amino acid (except L-cysteine). Plates were incubated at 37 °C and motility of cells monitored using a Molecular Imager® Gel Doc™ system from BIO-RAD (CA 94547, USA) after 3-7 h. Complementation experiments were repeated as biological triplicates.

[6] = Temperature-induced unfolding by far-UV CD; type: physicochemical
Procedure: Temperature-induced unfolding of native SeDsbA and KpDsbA was determined as described previously using a Jasco J-810 circular dichroism (CD) spectropolarimeter (Jasco, USA). The redox state of the protein was confirmed using Ellman’s reagent. The largest difference in molar ellipticity for oxidized or reduced enzymes was calculated from initial far-UV CD spectra (from 250 nm to 190 nm) recorded at 25 °C and 95 °C, respectively. The unfolding of oxidized and reduced protein (SeDsbAox = 220 nm, SeDsbAred = 220.5 nm and KpDsbAox = 211 nm, KpDsbAred = 209.5 nm) was monitored at a heat rate of 1 K / min from 298 K to 368 K in a 1 mm quartz cuvette. All measurements were carried out with 10 µM protein in 100 mM NaH2PO4 / Na2HPO4, 1 mM EDTA at pH 7.0. Samples for measurement of reduced enzyme contained 0.75 mM DTT. Raw data were analyzed in Prism and fitted to a two-state unfolding model as described previously. The standard deviation was measured from three replicates.

[7] = system: E. coli dsbA- null (JCB817); conditions: SeDsbA, null mutant motility assay; ref [44]; cited from earlier work

Molecule: CC(=O)N1CCC[C@H]1C(=O)N[C@@H](CO)C(=O)N1CCC[C@H]1C(=O)N[C@@H](Cc1ccccc1)C(=O)N[C@@H](CCC(N)=O)C(=O)N[C@H](C(=O)N[C@@H](CS)C(=O)N[C@@H](CC(=O)O)C(N)=O)[C@@H](C)O
- Kd (EcDsbA): 11 to 18 µM
- Kd (KpDsbA; ITC (Auto-iTC200), cell 100 μM KpDsbA, peptide 3 mM, 25 mM HEPES, 50 mM NaCl, pH 7.4, DMSO 0.8 %, 25 °C in method, 20 °C in table footnote, single-site model, apparent Kd, mean ± SD, three independent experiments, read-out: Kd): 16.7 ± 0.6 µM
- Kd (KpDsbA; ITC, range stated for KpDsbA and EcDsbA with PSPFATCD and PSPFQTCD together, read-out: Kd (range over both peptides and both DsbAs)): 11 to 18 µM

B1: EcDsbA: Escherichia coli DsbA (CAA56736) (protein)
chain: AQYEDGKQYTTLEKPVAGAPQVLEFFSFFCPHCYQFEEVLHISDNVKKKLPEGVKMTKYHVNFMGGDLGKDLTQAWAVAMALGVEDKVTVPLFEGVQKTQTIRSASDIRDVFINAGIKGEEYDAAWNSFVVKSLVAQQEKAAADVQLRGVPAMFVNGKYQLNPQGMDTSNMDVFVQQYADTVKYLSEKK
- insulin disulfide reductase activity (insulin [1]): weak insulin reductase activity
- dithiol oxidation signal without EcDsbB [2]: no increase in signal
- E°’ (redox potential) ([3]; EcDsbA, Table 1, ref [6], [14]): -122 mV
- Tm oxidized ([3]; EcDsbA, Table 1, ref [6], [14]): 341 K
- Tm reduced ([3]; EcDsbA, Table 1, ref [6], [14]): 350 K
- pKa “Cys30” ([3]; EcDsbA, ref [6], [14]): 3.3
- pKa of nucleophilic cysteine ([3]; EcDsbA, introduction, ref [9]): 3.3
- Tm oxidized ([3]; EcDsbA, with spread, ref [7]): 341.7 ± 0.2 K
- Tm reduced ([3]; EcDsbA, with spread, ref [7]): 350.9 ± 0.2 K
- pKa of nucleophilic cysteine ([3]; EcDsbA, ref [7]): 3.3
- redox potential ([3]; EcDsbA, ref [9]): -122 mV
- Tm oxidized ([3]; EcDsbA, ref [13]): 341 K
- Tm reduced ([3]; EcDsbA, ref [13]): 350 K
- insulin reductase activity (insulin [4]): weak disulfide reductants; also recorded: weak insulin reductase activity
- restoration of motility (swarming) [5]: can rescue the swarming

B2: SeDsbA: S. enterica Typhimurium DsbA (AAB81592) (protein)
chain: AQISDGKQYITLDKPVAGEPQVLEFFSFYCPHCYQFEEVLHVSDNVKKKLPEGTKMTKYHVEFLGPLGKELTQAWAVAMALGVEDKVTVPLFEAVQKTQTVQSAADIRKVFVDAGVKGEDYDAAWNSFVVKSLVAQQEKAAADLQLQGVPAMFVNGKYQINPQGMDTSSMDVFVQQYADTVKYLVDKK
modifications: left off: His6 (inferred: purified as described for KpDsbA), N-terminal, cleaved
- Tm reduced ([6]; 10 µM protein, 100 mM phosphate, 1 mM EDTA, pH 7.0, 0.75 mM DTT, 1 K/min 298-368 K, SeDsbA 220.5 nm, KpDsbA 209.5 nm, two-state fit, SD from three replicates): 351 K and 351.2 ± 0.2 K and 351.2 +/- 0.2 K
- Tm oxidized ([6]; 10 µM protein, 100 mM phosphate, 1 mM EDTA, pH 7.0, 1 K/min 298-368 K, SeDsbA 220 nm, KpDsbA 211 nm, two-state fit, SD from three replicates): 342.8 ± 0.4 K and 342.8 +/- 0.4 K and 343 K
- stabilisation of reduced over oxidized form ([6]; SeDsbA, difference of melting temperatures): 9 K
- dithiol oxidation signal without EcDsbB [2]: no increase in signal
- rate of catalyzed disulfide bond formation ([2]; with EcDsbB, 160 nM DsbA, 1.6 μM EcDsbB membrane extract, 8 μM peptide, 50 mM MES, 50 mM NaCl, 2 mM EDTA, time-resolved fluorescence 340/615 nm, three replicates): almost indistinguishable from that of EcDsbA
- E°’ (redox potential) ([3]; SeDsbA, Table 1, ref [43] and [14]): -126 mV
- pKa “Cys30” ([3]; SeDsbA, ref [43] and [14]): 3.3
- pKa of nucleophilic cysteine ([3]; SeDsbA, ref [43]): 3.3
- redox potential ([3]; SeDsbA, ref [43]): -126 mV
- insulin reductase activity (insulin [4]): weak disulfide reductants; also recorded: weak insulin reductase activity
- complementation of EcDsbA, motility [7]: can complement EcDsbA; also recorded: can fully restore the motility of dsbA ^- deficient strains
